Measured values taken from publication PMC5063001 (Nucleic Acids Research, 2016).

Assays:
[1] = target: T1, 15N-labeled FLI1 DBD (NMR) (UniProt Q01543 259-399); assay: NMR
T1 sequence: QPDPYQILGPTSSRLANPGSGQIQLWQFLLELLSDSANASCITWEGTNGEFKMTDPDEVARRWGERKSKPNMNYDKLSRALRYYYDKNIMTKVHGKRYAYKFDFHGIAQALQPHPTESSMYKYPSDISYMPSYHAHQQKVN

[2] = target: T2, FLI1 DBD (259-399) (UniProt Q01543 259-399); assay: fluorescence anisotropy
T2 sequence: T1 sequence

[3] = target: T3, FLI1 DBD (276-375) (UniProt Q01543 276-375); assay: X-ray crystallography
T3 sequence: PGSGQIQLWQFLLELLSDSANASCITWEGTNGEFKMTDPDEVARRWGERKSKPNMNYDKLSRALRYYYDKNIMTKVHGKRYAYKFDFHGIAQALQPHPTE

[4] = target: the molecule itself; assay: crystal structure

B1: 12-mer TTGAAGGAAGAG (dsDNA)
DNA 1: TTGAAGGAAGAG
DNA 2: CTCTTCCTTCAA
Does B1 bind [1]?
Result: binds

B2: AA(GGAA)6 (dsDNA)
DNA 1: AAGGAAGGAAGGAAGGAAGGAAGGAA
DNA 2: TTCCTTCCTTCCTTCCTTCCTTCCTT
Does B2 bind [2]?
Result: binds

B3: 11-mer GACCGGAAGTG (dsDNA)
DNA 1: GACCGGAAGTG
DNA 2: CACTTCCGGTC
Does B3 bind [3]?
Result: binds

B4: DNA binding domain of FLI1 (residues 276-375) (domain or fragment)
chain: T3 sequence
Does B4 bind [4]?
Result: binds
